B1: TPR t1 (parent)
chain: GACCAAUCUGCCCUCAGAGCUCGAGAACAUCUUCGGAUGCAGAGGAGGCAGGCUUCGGUGGCGCGAUAGCGCCAACGUCCUCAACCUCCAAUGCAUCCCACCACAUGAUGAUGCCUGAAGAGCCUUGGUUUUUUG

The variants in this series derive from B1. Description: polymerase ribozyme fitness, log enrichment relative to wild type (log ratio); higher = more active; in vitro selection for triplet polymerase activity. The essentials:
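Input and output libraries were sequenced on Illumina after a single in vitro selection round, run in triplicate on PCR-built, transcribed mutant libraries of each subunit of a heterodimeric triplet polymerase ribozyme. Selection annealed libraries to a biotinylated primer, the partner subunit and triplets, incubated them frozen at −7 °C, then gel-excised extended constructs for streptavidin-bead capture and RT-PCR. Genotypes with ≥10 input reads and ≥1 read per output were kept. Fitness is the logarithm, taken in base 2, of genotype enrichment divided by wild-type enrichment, using inverse-variance-weighted replicate averages.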
Consider U9A C73G, for which the “polymerase ribozyme fitness (log ratio)” value was -0.255.

For the variant U9C C40U U112G, the “polymerase ribozyme fitness (log ratio)” value worked out at 0.239.

With C8U A100C G117A, the “polymerase ribozyme fitness (log ratio)” value is -1.87.

Take C8G U33C C64A U106A G120C: the “polymerase ribozyme fitness (log ratio)” value was -6.76.

Turning to U9G A41U U81C U96A, the “polymerase ribozyme fitness (log ratio)” value is -2.65.

For C8U C80G, the “polymerase ribozyme fitness (log ratio)” value was -4.55.

Turning to U9G G10C C11A C15A A37G C49G C85U A95U C123U, the “polymerase ribozyme fitness (log ratio)” value is -3.19.

Consider U9C A37U A66C, for which the “polymerase ribozyme fitness (log ratio)” value was -1.35.

With C8G U9G C73G C123A, the “polymerase ribozyme fitness (log ratio)” value was determined as 1.1.

U9C G42C C53A U55C U130G: the “polymerase ribozyme fitness (log ratio)” value was -1.45.

Regarding C8U G57U G110U, the “polymerase ribozyme fitness (log ratio)” value was -1.01.

On to U9A C80U C101U A111U U116A, for which the “polymerase ribozyme fitness (log ratio)” value was -4.4.

In the case of U9C G19C C70U, the “polymerase ribozyme fitness (log ratio)” value is -3.22.

In the case of U9G A105U G113A, the “polymerase ribozyme fitness (log ratio)” value was -5.18.

Consider C8U C97U U116C, for which the “polymerase ribozyme fitness (log ratio)” value is -0.891.

Take U9A G71A C73A C85A U116A: the “polymerase ribozyme fitness (log ratio)” value is -3.81.

Take U9A A24G G42A G52C C72G: the “polymerase ribozyme fitness (log ratio)” value is -3.17.

Consider C8U U9A A18U C76G, for which the “polymerase ribozyme fitness (log ratio)” value was -1.89.

In the case of C8U G48C, the “polymerase ribozyme fitness (log ratio)” value is 0.186.

U9A U30C G44A G57U G60A U112G U125A: the “polymerase ribozyme fitness (log ratio)” value was -5.02.

U9G C28U G61U C72G U87A G122A: the “polymerase ribozyme fitness (log ratio)” value is -1.55.

As to U9A G69U, the “polymerase ribozyme fitness (log ratio)” value was 0.755.

Take U9G A16G C73G G110A U132A: the “polymerase ribozyme fitness (log ratio)” value was -2.97.

As to U9C A41C G52A C98U U130G, the “polymerase ribozyme fitness (log ratio)” value was -2.71.

Regarding C8U A24G G48C C115G, the “polymerase ribozyme fitness (log ratio)” value is -3.87.

In the case of U9A C13G A46G G107C G135U, the “polymerase ribozyme fitness (log ratio)” value is -7.09.

With U9A A75U U96G, the “polymerase ribozyme fitness (log ratio)” value was -0.383.

Turning to C8U C12U C64A C123U, the “polymerase ribozyme fitness (log ratio)” value was -4.54.

Take C8U C12A A41U A46G G71A C89U: the “polymerase ribozyme fitness (log ratio)” value was -2.07.

As to U9A A18G C82U C115U, the “polymerase ribozyme fitness (log ratio)” value was -3.35.

In the case of C8U U38G G51A, the “polymerase ribozyme fitness (log ratio)” value is -3.4.

In the case of U9C C11U G71A A111C, the “polymerase ribozyme fitness (log ratio)” value was -1.02.

Take C8U C82U G113U: the “polymerase ribozyme fitness (log ratio)” value is -2.67.

With U9A C34U A37C A46U C56U G107C C114U G122A G127C, the “polymerase ribozyme fitness (log ratio)” value was -7.05.

Turning to U9C C13U G48A A74C U81G C101U U126C, the “polymerase ribozyme fitness (log ratio)” value is -2.71.

With U9C C31U A37U, the “polymerase ribozyme fitness (log ratio)” value is -5.02.

On to C8U A29U C70U, for which the “polymerase ribozyme fitness (log ratio)” value is -2.36.

As to U9G G10U C94U, the “polymerase ribozyme fitness (log ratio)” value is -0.059.

As for C8G U14C G45A A84G, the “polymerase ribozyme fitness (log ratio)” value is -0.446.

For C8U C73A C88G, the “polymerase ribozyme fitness (log ratio)” value is -1.06.

For the variant U9A A50G C88G A108U, the “polymerase ribozyme fitness (log ratio)” value was -4.75.

Take C8U C62A C98U: the “polymerase ribozyme fitness (log ratio)” value was -1.15.

For U9G C102U G135U, the “polymerase ribozyme fitness (log ratio)” value is -2.17.

Regarding U9G C12A U14G G63U C99A G120C, the “polymerase ribozyme fitness (log ratio)” value was -6.39.

C8G U30C: the “polymerase ribozyme fitness (log ratio)” value is -2.51.

For C8U C15U G36A A68G C97U G120A, the “polymerase ribozyme fitness (log ratio)” value is -1.91.

Take U9C C85G: the “polymerase ribozyme fitness (log ratio)” value was -1.02.

On to U9A A50U C102A, for which the “polymerase ribozyme fitness (log ratio)” value is -1.91.

As to C8U C82U U116G G117A, the “polymerase ribozyme fitness (log ratio)” value worked out at 0.198.

In the case of U9A G36A G113A, the “polymerase ribozyme fitness (log ratio)” value was -0.728.

With C8U U21A U30C C56U, the “polymerase ribozyme fitness (log ratio)” value is -3.2.

As to C8U A50U C94A, the “polymerase ribozyme fitness (log ratio)” value is -1.52.

For C8U C99U, the “polymerase ribozyme fitness (log ratio)” value is -2.32.

For U9G C40A C76U C114A, the “polymerase ribozyme fitness (log ratio)” value was -2.63.

Take U9G C15A C70G A111U G117C: the “polymerase ribozyme fitness (log ratio)” value is -5.91.

For the variant U9G C20A, the “polymerase ribozyme fitness (log ratio)” value was -2.5.

Turning to U9A C13U U92A C101A, the “polymerase ribozyme fitness (log ratio)” value is -4.36.

On to U9C C15G A43U, for which the “polymerase ribozyme fitness (log ratio)” value was -1.5.

Consider U9C C31U C56A A103U G120U, for which the “polymerase ribozyme fitness (log ratio)” value is -6.8.

For C8U C40G G63U A100G, the “polymerase ribozyme fitness (log ratio)” value was -5.92.

For the variant U9A U32A C62U C114A, the “polymerase ribozyme fitness (log ratio)” value is -4.44.

With C8G U32G C101U C124A, the “polymerase ribozyme fitness (log ratio)” value is -4.92.

Turning to U9A A90U U96C U106A G128C, the “polymerase ribozyme fitness (log ratio)” value is -5.11.

U9C U32C U109G: the “polymerase ribozyme fitness (log ratio)” value is -6.53.

Take U9G C12U C13G G47C C56U: the “polymerase ribozyme fitness (log ratio)” value is -1.38.

U9C C12G U55C A83G G93A C102U: the “polymerase ribozyme fitness (log ratio)” value was -5.25.

As to U9G C13U C49G C82U, the “polymerase ribozyme fitness (log ratio)” value was -0.776.

Turning to C8U A121U, the “polymerase ribozyme fitness (log ratio)” value turned out to be 2.15.

For the variant U9G A95C U130A, the “polymerase ribozyme fitness (log ratio)” value was -0.961.

Regarding U9G G36U C70U A74U, the “polymerase ribozyme fitness (log ratio)” value was -1.42.

As for U9G G19U G44A G58C C64U A74G, the “polymerase ribozyme fitness (log ratio)” value is -4.3.

On to C8U A29U U59C A121G, for which the “polymerase ribozyme fitness (log ratio)” value was -1.03.

Turning to U9C C15G U106A, the “polymerase ribozyme fitness (log ratio)” value is -1.27.

For U9G C12G U33A G42A C72G G93A G110U U116A, the “polymerase ribozyme fitness (log ratio)” value is -7.22.

Consider U9G A46U G48U C76U C124U, for which the “polymerase ribozyme fitness (log ratio)” value is -1.24.

For C8G U9C C56G G69A, the “polymerase ribozyme fitness (log ratio)” value is -2.35.

In the case of U9A G52A C104U G110C, the “polymerase ribozyme fitness (log ratio)” value was -3.92.

For C8U C22G U96A, the “polymerase ribozyme fitness (log ratio)” value was -2.59.

For C8G U9G C12A G69A C88G U132A, the “polymerase ribozyme fitness (log ratio)” value was -4.01.

On to U9C U14A U21C A43C G117A A119G, for which the “polymerase ribozyme fitness (log ratio)” value is -1.44.

Turning to U9G A18U C49A G93A G110C, the “polymerase ribozyme fitness (log ratio)” value was -5.65.

On to C8U C12G U14G G60A U78G G113A, for which the “polymerase ribozyme fitness (log ratio)” value is -3.01.

As for U9C C40G C101U, the “polymerase ribozyme fitness (log ratio)” value is -0.436.

For U9A U78A, the “polymerase ribozyme fitness (log ratio)” value was -0.206.

For the origin of these results see the RNAGym collection of RNA variant scans (doi:10.1073/pnas.2313332121).
